The values that follow are results of earlier work, collected in article PMC5340040 (BMC Biochemistry, 2017).

In the series the test system is actin. The following applies: ref [10]. The source says: Actin is a negatively charged structural protein and the most abundant protein in the eukaryotic cells. Actin, released from dead cells, is also present in the saliva. Actin has important roles in cytoskeleton formation, cell division, motility, adhesion, signaling and more. Actin exists in either monomer globular (G) or polymer filament (F) form, which are interconvertible into each other.

B1: eEF1A: eukaryotic elongation factor 1 alpha (protein, UniProt P02994 2-458, looked up)
Elongation factor 1-alpha: GKEKSHINVVVIGHVDSGKSTTTGHLIYKCGGIDKRTIEKFEKEAAELGKGSFKYAWVLDKLKAERERGITIDIALWKFETPKYQVTVIDAPGHRDFIKNMITGTSQADCAILIIAGGVGEFEAGISKDGQTREHALLAFTLGVRQLIVAVNKMDSVKWDESRFQEIVKETSNFIKKVGYNPKTVPFVPISGWNGDNMIEATTNAPWYKGWEKETKAGVVKGKTLLEAIDAIEQPSRPTDKPLRLPLQDVYKIGGIGTVPVGRVETGVIKPGMVVTFAPAGVTTEVKSVEMHHEQLEQGVPGDNVGFNVKNVSVKEIRRGNVCGDAKNDPPKGCASFNATVIVLNHPGQISAGYSPVLDCHTAHIACRFDELLEKNDRRSGKKLEDHPKFLKSGDAALVKFVPSKPMCVEAFSEYPPLGRFAVRDMRQTVAVGVIKSVDKTEKAAKVTKAAQKAAKK
As for B1, the “polymerization and bundling of actin, eEF1A” value was “polymerize G-actin to F actin and bundle F-actin into actin bundles”.
